± gives the uncertainty stated by the source.
Experiment: protein stability index of a GFP-peptide fusion (yeast GPS) (PSI 1-4); higher = more stable; sorted into four equal gates, so the index is relative within each strain
How it was run: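 Plasmids in a pooled yeast library fused tiled 17-residue yeast protein peptides downstream of GFP and also expressed Cherry. Mid-log cultures grown without leucine were sorted into four equal gates by GFP/Cherry fluorescence ratio. Each gate's plasmids were PCR-amplified and Illumina-sequenced, and reads were matched to strains by barcodes. The protein stability index is derived by multiplying each gate's read frequency by its gate number and summing the results.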

Row | Sequence | protein stability index (doa10∆) | protein stability index (pdr5∆) | protein stability index (san1∆) | protein stability index (ubr1∆)
1 | CIECQPKAMTDTDNECV [HRT1] | 3.26 ± 0.097 | 3.25 ± 0.093 | 2.94 ± 0.11 | 3.32 ± 0.062
2 | ALRRRVGPSEQNFAEED [REC8] | 3.37 ± 0.12 | 3.51 ± 0.15 | 3.39 ± 0.11 | 3.24 ± 0.098
3 | NEFQLQWGKYQTFGVDI [SWI1] | 2.98 ± 0.12 | 3.06 ± 0.09 | 3.09 ± 0.067 | 3.26 ± 0.088
4 | FRHFIGIKAKHDKNIQK [ISW2] | 2.68 ± 0.089 | 2.6 ± 0.085 | 2.48 ± 0.06 | 2.51 ± 0.078
5 | GGLGLNLQTADTVIIFD [SNF2] | 3.18 ± 0.12 | 3.22 ± 0.1 | 3.34 ± 0.13 | 3.38 ± 0.07
6 | LGMGKAVEKTLALGCHF [POP7] | 1.98 ± 0.097 | 2.16 ± 0.08 | 2.6 ± 0.1 | 2.38 ± 0.088
7 | LTHPKYLNSRIIPTTLE [YML103C/NUP188] | 2.1 ± 0.035 | 2.26 ± 0.041 | 2.05 ± 0.049 | 2.25 ± 0.036
8 | LSMNIAPRLRLEDIFQQ [RET1] | 2.06 ± 0.05 | 1.92 ± 0.038 | 1.98 ± 0.057 | 2.01 ± 0.037
9 | AVARLKSMNKSAINQYN [SNF2] | 1.81 ± 0.073 | 2.33 ± 0.076 | 2.34 ± 0.052 | 2.88 ± 0.032
10 | AALRTVKSLVDNMITGV [RPL9A] | 2.5 ± 0.091 | 3.17 ± 0.076 | 2.99 ± 0.071 | 3.03 ± 0.075
11 | KVLLDSKDVQQIDYKLE [RPS7A] | 2.69 ± 0.21 | 3.15 ± 0.15 | 3.31 ± 0.061 | 3.2 ± 0.12
12 | WQIEEAGNSQITSGGFL [SRB5] | 2.98 ± 0.2 | 3.13 ± 0.17 | 3.07 ± 0.25 | 3.23 ± 0.14
13 | TRAGGLGINLVTADTVI [ISW2] | 2.19 ± 0.061 | 2.13 ± 0.054 | 2.12 ± 0.1 | 2.89 ± 0.096
14 | TDIKQFLELTRRADVKT [RPL38] | 2.95 ± 0.17 | 3.29 ± 0.17 |  | 
15 | PLAKIYLEENKSDSQYR [MED1] | 3.15 ± 0.086 | 3.18 ± 0.065 | 3.15 ± 0.059 | 3.16 ± 0.06
16 | GNEVSSLYPPPPPYVKF [MED7] | 3.17 ± 0.087 | 3.08 ± 0.065 | 2.74 ± 0.079 | 3.13 ± 0.049
17 | IDETMMDKPLNFRILKS [SRB5] | 2.95 ± 0.14 | 3.09 ± 0.13 | 2.76 ± 0.087 | 2.79 ± 0.13
18 | DSKGSLYSVKFAPAHLG [YGL100W/SEH1] | 2.66 ± 0.11 | 3.05 ± 0.13 | 2.59 ± 0.1 | 2.81 ± 0.062
19 | FKSYATRTVITDWDPQF [SMC2] | 2.88 ± 0.11 | 3.06 ± 0.083 | 2.72 ± 0.12 | 2.85 ± 0.097
20 | VIQIVTGIFMAMHYSSN [COB] | 1.32 ± 0.078 | 1.16 ± 0.069 | 1.33 ± 0.17 | 1.46 ± 0.088
21 | PFSYLIDETMMDKPLNF [SRB5] | 2.88 ± 0.11 | 3.09 ± 0.073 | 2.83 ± 0.067 | 2.97 ± 0.054
22 | MKKKLELISYRNESLKN [SRB8] | 2.96 ± 0.045 | 2.98 ± 0.058 | 2.94 ± 0.05 | 3.07 ± 0.035
23 | DELDAIGTKRFDSEKSG [RPT5] | 2.46 ± 0.066 | 1.66 ± 0.058 | 2.25 ± 0.086 | 1.99 ± 0.057
24 | DEEMAVLTRMDEDRSKK [SNF2] | 3.17 ± 0.071 | 2.66 ± 0.083 | 2.42 ± 0.092 | 2.57 ± 0.072
25 | LSILNEIKKVTQIVAKF [SIN4] | 3.13 ± 0.16 | 2.39 ± 0.14 | 2.37 ± 0.11 | 2.87 ± 0.091
26 | NVKFLRIFISNVSENQP [SNF12] | 1.53 ± 0.095 | 1.63 ± 0.075 | 2.02 ± 0.075 | 1.95 ± 0.069

Row | Sequence | protein stability index (doa10∆) | protein stability index (pdr5∆) | protein stability index (san1∆) | protein stability index (ubr1∆)
27 | YKAKIKELENNLERLRS [YIL149C/MLP2] | 3.22 ± 0.095 | 1.65 ± 0.051 | 2.64 ± 0.078 | 3.11 ± 0.054
28 | LNLLSQNNTTKFHSELQ [RPN12] | 2.47 ± 0.091 | 2.24 ± 0.078 | 1.67 ± 0.12 | 2.16 ± 0.12
29 | QQQLRNQIQRQQQQQFR [SNF5] | 1.43 ± 0.18 |  | 1.4 ± 0.21 | 1.55 ± 0.061
30 | SKQIFTHPKDTFYITRE [ARP9] | 3.11 ± 0.065 | 3.09 ± 0.056 | 2.93 ± 0.038 | 3.23 ± 0.039
31 | RDYLVDTLKLRENLHIL [RRP6] | 3.52 ± 0.098 | 3.29 ± 0.096 | 3.4 ± 0.069 | 3.29 ± 0.084
32 | LKHYNGYDINYISKIGE [SWI1] | 2.81 ± 0.056 | 2.71 ± 0.049 | 2.07 ± 0.066 | 2.62 ± 0.053
33 | LREKEDKKNSSDPNNQS [YJL039C/NUP192] | 3.06 ± 0.11 | 3.09 ± 0.13 | 3.17 ± 0.099 | 3.33 ± 0.071
34 | LKIHQSHLVVPYCPIAS [YMR129W/POM152] | 1.25 ± 0.063 | 1.29 ± 0.061 | 1.24 ± 0.12 | 1.28 ± 0.035
35 | SISTYKDILNLASEVGD [ECM29] | 2.63 ± 0.07 | 2.65 ± 0.076 | 2.71 ± 0.071 | 2.77 ± 0.054
36 | SSLALVFALHKYKPTPL [SMC4] | 2.18 ± 0.052 | 2.18 ± 0.074 | 2.17 ± 0.088 | 2.93 ± 0.055
37 | YSLASVTLKGAKALESL [POP1] | 2.78 ± 0.049 | 2.83 ± 0.052 | 2.83 ± 0.045 | 2.77 ± 0.052
38 | ATQSGGVRPFGVSLLIA [PRE8] | 1.29 ± 0.071 | 1.62 ± 0.071 | 1.4 ± 0.17 | 1.51 ± 0.064
39 | FTGNNSTPGGGSVFNMN [YOR098C/NUP1] | 2.9 ± 0.097 | 3.58 ± 0.19 |  | 3.03 ± 0.14
40 | STSLGIPDFRSSEGFYS [SIR2] | 1.85 ± 0.27 | 1.62 ± 0.089 |  | 3.36 ± 0.14
41 | RTDATFIRVIGSELVQK [RPT1] | 3.2 ± 0.082 | 3.19 ± 0.057 | 3.04 ± 0.072 | 2.98 ± 0.051
42 | LAMVIIKEFVDDLKKDH [DSN1] | 2.74 ± 0.2 | 2.92 ± 0.16 | 2.88 ± 0.12 | 2.85 ± 0.085
43 | SNEFVPNTSDNNNNSNN [SWI1] | 2.59 ± 0.1 | 2.79 ± 0.11 | 2.71 ± 0.095 | 2.88 ± 0.066
44 | LIKMSRSPPRPPSLKII [PRP28] | 2.16 ± 0.062 | 2.3 ± 0.068 | 2.3 ± 0.072 | 1.86 ± 0.052
45 | LPEILNVLCVNIKSNDF [ECM29] | 1.56 ± 0.046 | 1.58 ± 0.047 | 1.37 ± 0.088 | 1.58 ± 0.035
46 | ALKNACNSIINKLGALK [RPB11] | 2.89 ± 0.29 |  | 2.95 ± 0.11 | 3.17 ± 0.15
47 | NEYVAKVSAREKSAYKF [FAS2] | 3.23 ± 0.082 | 3.16 ± 0.073 | 3.04 ± 0.093 | 3.32 ± 0.061
48 | AINVFPEGYKAKSISTS [RPO31] | 2.03 ± 0.05 | 1.8 ± 0.057 | 2.27 ± 0.07 | 2.31 ± 0.059
49 | RQLAGAIGYEPLSLTHR [DIS3] | 2.94 ± 0.057 | 2.87 ± 0.057 | 2.86 ± 0.07 | 2.93 ± 0.041
50 | DLLNAASIESADILCPL [IRR1] | 3.05 ± 0.2 | 2.24 ± 0.13 | 2.92 ± 0.12 | 2.79 ± 0.058
51 | SQTMAETYVASYVVPRL [ECM29] | 1.85 ± 0.042 | 1.82 ± 0.049 | 1.9 ± 0.069 | 2 ± 0.038
52 | KIFIAVVWYQRLTMGNV [RRI2] | 1.3 ± 0.044 | 1.25 ± 0.038 | 1.28 ± 0.082 | 1.27 ± 0.036

— the supplement of paper PMC9732359
